In paper PMC5240932, “The Nuclear Receptor HIZR-1 Uses Zinc as a Ligand to Mediate Homeostasis in Response to High Zinc” one finds binding result and Kd data, which are given here for two molecules.

One series concerns the target T1, HIZR-1 G23E (Caenorhabditis elegans, UniProt G5ED47 1-412, G23E).
T1 sequence: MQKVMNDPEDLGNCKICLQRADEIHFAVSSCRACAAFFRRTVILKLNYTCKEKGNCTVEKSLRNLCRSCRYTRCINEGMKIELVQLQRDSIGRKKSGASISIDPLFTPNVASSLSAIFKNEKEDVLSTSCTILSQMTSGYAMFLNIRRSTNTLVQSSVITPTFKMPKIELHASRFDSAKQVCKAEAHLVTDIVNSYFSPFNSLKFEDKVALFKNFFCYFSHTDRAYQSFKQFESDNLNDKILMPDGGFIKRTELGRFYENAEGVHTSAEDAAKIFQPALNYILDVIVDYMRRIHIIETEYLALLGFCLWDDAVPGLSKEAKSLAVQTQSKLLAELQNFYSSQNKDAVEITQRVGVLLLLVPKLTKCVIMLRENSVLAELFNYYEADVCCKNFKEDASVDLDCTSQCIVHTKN
Put plainly: EMSA; legend: not bound; text: dramatically reduced; Licor Odyssey EMSA Buffer Kit per manufacturer; buffer composition, salt, pH and temperature not stated. To be noted: protein: recombinant; tags: N-terminal 6xHis (pTrcHisA); label: IRDye700. (In general: In EMSA bound probe runs differently from free probe, usually more slowly.)

A further series has as its target T2, HIZR-1 R63C (Caenorhabditis elegans, UniProt G5ED47 1-412, R63C).
T2 sequence: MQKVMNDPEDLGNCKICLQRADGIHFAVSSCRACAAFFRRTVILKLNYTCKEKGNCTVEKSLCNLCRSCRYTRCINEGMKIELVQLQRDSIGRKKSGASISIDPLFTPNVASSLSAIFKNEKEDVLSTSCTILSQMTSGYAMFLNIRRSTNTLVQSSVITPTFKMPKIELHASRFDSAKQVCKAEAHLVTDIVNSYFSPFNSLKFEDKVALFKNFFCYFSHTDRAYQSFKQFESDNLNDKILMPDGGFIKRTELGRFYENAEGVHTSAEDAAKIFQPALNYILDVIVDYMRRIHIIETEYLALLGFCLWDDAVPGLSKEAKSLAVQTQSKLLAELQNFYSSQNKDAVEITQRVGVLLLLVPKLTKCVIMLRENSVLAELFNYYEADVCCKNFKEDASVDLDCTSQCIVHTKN
The series is described as above. To be noted: protein: recombinant; tags: N-terminal 6xHis (pTrcHisA); label: IRDye700.

Series [1] has as its target T3, HIZR-1 WT (Caenorhabditis elegans, UniProt G5ED47 1-412).
T3 sequence: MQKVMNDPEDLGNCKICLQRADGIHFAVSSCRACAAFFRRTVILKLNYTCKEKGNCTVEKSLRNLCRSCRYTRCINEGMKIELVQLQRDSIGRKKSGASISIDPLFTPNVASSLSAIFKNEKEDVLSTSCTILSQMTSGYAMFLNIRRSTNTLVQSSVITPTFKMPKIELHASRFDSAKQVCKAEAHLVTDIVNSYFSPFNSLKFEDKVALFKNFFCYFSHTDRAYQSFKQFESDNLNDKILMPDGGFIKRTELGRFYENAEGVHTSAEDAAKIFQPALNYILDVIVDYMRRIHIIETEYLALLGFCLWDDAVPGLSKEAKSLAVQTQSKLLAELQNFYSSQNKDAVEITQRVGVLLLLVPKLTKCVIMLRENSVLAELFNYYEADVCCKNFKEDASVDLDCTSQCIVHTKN
Put plainly: EMSA; apparent Kd; constant protein, variable labeled DNA; Licor Odyssey EMSA Buffer Kit per manufacturer; buffer composition, salt, pH and temperature not stated. To be noted: protein: recombinant; tags: N-terminal 6xHis (pTrcHisA); label: IRDye700.

For the next series, the target named is T4, HIZR-1 S30L (Caenorhabditis elegans, UniProt G5ED47 1-412, S30L).
T4 sequence: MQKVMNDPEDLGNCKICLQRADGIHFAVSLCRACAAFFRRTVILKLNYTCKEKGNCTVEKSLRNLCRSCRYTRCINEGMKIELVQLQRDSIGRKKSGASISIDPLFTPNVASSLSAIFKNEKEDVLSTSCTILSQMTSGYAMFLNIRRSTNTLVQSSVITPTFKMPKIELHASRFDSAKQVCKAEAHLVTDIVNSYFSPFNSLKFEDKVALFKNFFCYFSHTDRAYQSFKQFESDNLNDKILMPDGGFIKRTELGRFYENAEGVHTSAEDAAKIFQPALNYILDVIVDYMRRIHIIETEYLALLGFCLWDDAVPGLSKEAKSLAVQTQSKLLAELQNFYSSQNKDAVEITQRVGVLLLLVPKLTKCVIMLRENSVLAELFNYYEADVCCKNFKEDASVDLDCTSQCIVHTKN
The series is described as follows: EMSA; legend: not bound; text: dramatically reduced; faint fast band of unknown significance; Licor Odyssey EMSA Buffer Kit per manufacturer; buffer composition, salt, pH and temperature not stated. The settings on record: protein: recombinant; tags: N-terminal 6xHis (pTrcHisA); label: IRDye700.

Series [2] concerns the target T3, HIZR-1 WT. Put plainly: competition; EMSA; 5-5000 nM unlabeled mutant vs labeled HZA; does not compete; Licor Odyssey EMSA Buffer Kit per manufacturer; buffer composition, salt, pH and temperature not stated. To be noted: protein: recombinant; tags: N-terminal 6xHis (pTrcHisA).

B1: HZA WT, labeled (cdf-2 promoter) (dsDNA)
DNA 1: TGTGTTATCAATCATAAACTAGAACATGTCTCGAG
DNA 2: CTCGAGACATGTTCTAGTTTATGATTGATAACACA
On to B1, for which the binding result with HIZR-1 G23E, in the series with HIZR-1 R63C and with HIZR-1 S30L was “no binding” each time. Further, the Kd with HIZR-1 WT [1] was determined as 20.4 ± 6.8 nM.

B2: Mutant HZA, unlabeled competitor (dsDNA)
DNA 1: TGTGTTATCAGAACATACAACATTAATGTCTCGAG
DNA 2: CTCGAGACATTAATGTTGTATGTTCTGATAACACA
In the case of B2, the binding result with HIZR-1 WT [2] was “no binding”.
